The test concerns the target T1, Smc3 hinge domain fusion protein, wild type (Smc3H) (yeast, UniProt P47037 495-705).
T1 sequence: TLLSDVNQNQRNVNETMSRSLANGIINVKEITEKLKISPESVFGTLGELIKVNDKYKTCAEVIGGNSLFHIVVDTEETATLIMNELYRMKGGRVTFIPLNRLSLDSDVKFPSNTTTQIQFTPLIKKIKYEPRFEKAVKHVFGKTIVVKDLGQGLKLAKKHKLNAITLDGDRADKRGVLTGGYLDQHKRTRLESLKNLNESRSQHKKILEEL
Nature of the test: SEC.

B1: Smc1 hinge domain fusion protein, wild type (Smc1H) (domain or fragment)
chain: SANQRETMKERKLRENIAMLKRFFPGVKGLVHDLCHPKKEKYGLAVSTILGKNFDSVIVENLTVAQECIAFLKKQRAGTASFIPLDTIETELPTLSLPDSQDYILSINAIDYEPEYEKAMQYVCGDSIICNTLNIAKDLKWKKGIRGKLVTIEGALIHKAGLMTGGISGDANNRWDKEE
As to B1, the binding result is “binds”.

Source of the values: publication PMC2852676 (Current Biology, 2010).
